According to article doi:10.1101/2025.08.21.671446 (bioRxiv, 2025):
Values joined by “and” are separate entries in the source; they are usually repeats but may differ in a detail not shown here. Equal values may be shown once. Read-outs that look alike come from different tables or passages of the source.

Tests used:
SEC [1] = target: the molecule itself; test: SEC
SEC [2] = target: the molecule itself; test: SEC; remark: listed apart in the source
MoyR [3] = target: T1, MoyR (Mycobacterium tuberculosis H37Rv, UniProt O86331 1-269); test: EMSA
T1 sequence: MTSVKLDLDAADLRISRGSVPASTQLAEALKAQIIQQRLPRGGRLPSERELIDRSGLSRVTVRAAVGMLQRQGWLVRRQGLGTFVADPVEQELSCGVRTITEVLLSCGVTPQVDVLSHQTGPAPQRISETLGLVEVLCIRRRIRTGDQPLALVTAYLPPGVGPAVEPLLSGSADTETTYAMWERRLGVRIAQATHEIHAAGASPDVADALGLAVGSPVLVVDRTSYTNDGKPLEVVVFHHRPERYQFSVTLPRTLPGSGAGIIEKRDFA

MoyR [4] = target: T1, MoyR; test: EMSA; remark: listed apart in the source
MoyR [5] = target: T1, MoyR; test: EMSA; remark: listed apart in the source

B1: MoyR (Rv0792c), GntR family (HutC subfamily) monooxygenase regulator of Mycobacterium tuberculosis (natural protein)
chain: MTSVKLDLDAADLRISRGSVPASTQLAEALKAQIIQQRLPRGGRLPSERELIDRSGLSRVTVRAAVGMLQRQGWLVRRQGLGTFVADPVEQELSCGVRTITEVLLSCGVTPQVDVLSHQTGPAPQRISETLGLVEVLCIRRRIRTGDQPLALVTAYLPPGVGPAVEPLLSGSADTETTYAMWERRLGVRIAQATHEIHAAGASPDVADALGLAVGSPVLVVDRTSYTNDGKPLEVVVFHHRPERYQFSVTLPRTLPGSGAGIIEKRDFA
- stoichiometry N (SEC [1]): 2
- stoichiometry N (SEC [2]): 4 and 6

B2: moyOf4 (dsDNA)
DNA 1: TAGCAGCGGAAGAAGGTCA
DNA 2: TGACCTTCTTCCGCTGCTA
- binding result (MoyR [3]): no binding

B3: moyOf6 (20 bp) (dsDNA)
DNA 1: AGCTTGACAGATGTCATAAG
DNA 2: CTTATGACATCTGTCAAGCT
- binding result (MoyR [4]): no binding

B4: moyOf1 (47 bp) (dsDNA)
DNA 1: AGCTTGACAGATGTCATAAGACGTATTAAAACGTCTTATACTCACCA
DNA 2: TGGTGAGTATAAGACGTTTTAATACGTCTTATGACATCTGTCAAGCT
- Kd (MoyR [5]): 16.6 nM
